Data from US20110098218A1 (AGENCY FOR SCIENCE TECHNOLOGY AND RESEARCH, published 2011).

Molecular target: T1, Flag-tagged mouse STAT3 (pXJ40-Flag-mSTAT3) (mouse, UniProt P42227 1-770, limits assumed, phosphorylated after leptin treatment (phospho-STAT3); the site is not given)
T1 construct: also called phospho-STAT3; Flag-tagged STAT3; not shown: Flag tag
Assay: coimmunoprecipitation

T1 sequence (P42227 whole entry): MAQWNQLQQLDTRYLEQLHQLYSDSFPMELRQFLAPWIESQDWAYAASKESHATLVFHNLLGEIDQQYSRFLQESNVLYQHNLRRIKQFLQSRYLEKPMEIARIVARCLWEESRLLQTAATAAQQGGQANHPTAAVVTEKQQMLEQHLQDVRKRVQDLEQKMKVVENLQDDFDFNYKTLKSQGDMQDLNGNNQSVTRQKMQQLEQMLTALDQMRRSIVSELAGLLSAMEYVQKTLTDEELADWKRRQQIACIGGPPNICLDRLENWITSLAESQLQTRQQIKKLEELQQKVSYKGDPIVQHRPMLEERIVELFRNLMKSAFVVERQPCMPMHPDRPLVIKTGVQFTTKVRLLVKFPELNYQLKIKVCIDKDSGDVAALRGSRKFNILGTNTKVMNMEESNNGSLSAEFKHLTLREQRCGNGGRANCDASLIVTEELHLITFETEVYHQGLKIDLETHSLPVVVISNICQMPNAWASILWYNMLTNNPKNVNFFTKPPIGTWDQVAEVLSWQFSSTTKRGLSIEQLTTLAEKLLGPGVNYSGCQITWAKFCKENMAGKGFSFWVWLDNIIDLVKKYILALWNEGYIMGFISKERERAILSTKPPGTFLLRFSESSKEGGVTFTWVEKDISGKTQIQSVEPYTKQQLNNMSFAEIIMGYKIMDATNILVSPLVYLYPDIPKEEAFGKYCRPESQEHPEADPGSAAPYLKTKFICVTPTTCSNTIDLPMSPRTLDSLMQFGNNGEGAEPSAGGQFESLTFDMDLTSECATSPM

| binding result | Binder |
| --- | --- |
| no binding | FoxO1^(1-123) (other) MAEAPQVVETDPDFEPLPRQRSCTWPLPRPEFNQSNSTTSSPAPSGGAAANPDAAASLASASAVSTDFMSNLSLLEESEDFARAPGCVAVAAAAAASRGLCGDFQGPEAGCVHPAPPQPPPTG |
| no binding | FoxO1^(1-123)-(168-652) (other, UniProt Q9R1E0 1-123, looked up) MAEAPQVVETDPDFEPLPRQRSCTWPLPRPEFNQSNSTTSSPAPSGGAAANPDAAASLASASAVSTDFMSNLSLLEESEDFARAPGCVAVAAAAAASRGLCGDFQGPEAGCVHPAPPQPPPTGKAIESSAEKRLTLSQIYEWMVKSVPYFKDKGDSNSSAGWKNSIRHNLSLHSKFIRVQNEGTGKSSWWMLNPEGGKSGKSPRRRAASMDNNSKFAKSRGRAAKKKASLQSGQEGPGDSPGSQFSKWPASPGSHSNDDFDNWSTFRPRTSSNASTISGRLSPIMTEQDDLGDGDVHSLVYPPSAAKMASTLPSLSEISNPENMENLLDNLNLLSSPTSLTVSTQSSPGSMMQQTPCYSFAPPNTSLNSPSPNYSKYTYGQSSMSPLPQMPMQTLQDSKSSYGGLNQYNCAPGLLKELLTSDSPPHNDIMSPVDPGVAQPNSRVLGQNVMMGPNSVMPAYGSQASHNKMMNPSSHTHPGHAQQTASVNGRTLPHVVNTMPHTSAMNRLTPVKTPLQVPLSHPMQMSALGSYSSVSSCNGYGRMGVLHQEKLPSDLDGMFIERLDCDMESIIRNDLMDGDTLDFNFDNVLPNQSFPHSVKTTTHSWVSG |
